According to PMC8651671:
Blank lines part the entries; values can stand above or below the molecule they belong to.

What was measured:
[1] = biological target: 3-phosphoglycerate dehydrogenase (SerA) of Achromobacter denitrificans NBRC 15125 (Achromobacter denitrificans NBRC 15125); experiment: SEC; Superdex 200 10/300 GL, 50 mM sodium phosphate, 150 mM NaCl, pH 7.2, 0.5 mL min^-1; native molecular weight against standard proteins, compared with SDS-PAGE
WbpB = WbpB (Pseudomonas aeruginosa, UniProt G3XD23); experiment: HPLC product analysis, biosensor assay and bound-NADH oxidation with purified enzyme; assay type: biochemical
Chain of WbpB (G3XD23 whole entry): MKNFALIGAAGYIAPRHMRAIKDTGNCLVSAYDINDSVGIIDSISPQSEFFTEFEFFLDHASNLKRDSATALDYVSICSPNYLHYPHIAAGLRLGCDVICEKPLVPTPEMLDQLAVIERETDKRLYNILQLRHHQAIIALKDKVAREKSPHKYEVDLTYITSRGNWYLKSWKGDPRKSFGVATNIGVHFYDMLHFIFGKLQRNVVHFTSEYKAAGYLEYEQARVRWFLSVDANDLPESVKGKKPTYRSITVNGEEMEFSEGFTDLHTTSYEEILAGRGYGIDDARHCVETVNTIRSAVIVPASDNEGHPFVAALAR

DhdR = biological target: T1, DhdR; experiment: ITC; also thermal shift (ΔTm […] °C), EMSA, AlphaScreen; assay type: binding, Achromobacter denitrificans
T1 construct: His6-tagged DhdR

SerA = biological target: T2, SerA (Achromobacter denitrificans, UniProt A0A3R9FY19); experiment: product of 2-KG reduction by purified enzyme; assay type: biochemical
T2 sequence (A0A3R9FY19 1-399): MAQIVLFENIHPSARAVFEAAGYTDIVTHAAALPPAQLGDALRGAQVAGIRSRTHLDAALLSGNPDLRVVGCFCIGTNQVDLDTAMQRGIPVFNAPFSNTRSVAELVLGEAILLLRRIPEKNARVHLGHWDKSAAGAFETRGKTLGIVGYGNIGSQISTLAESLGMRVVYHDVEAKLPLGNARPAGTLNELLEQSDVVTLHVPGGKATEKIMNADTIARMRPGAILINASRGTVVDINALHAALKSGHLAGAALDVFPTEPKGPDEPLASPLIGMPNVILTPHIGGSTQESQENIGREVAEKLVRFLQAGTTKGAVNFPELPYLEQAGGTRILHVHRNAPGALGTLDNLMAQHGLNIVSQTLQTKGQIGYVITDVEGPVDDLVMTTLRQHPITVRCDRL

[2] = biological target: D-2-HG dehydrogenase (D2HGDH) of Achromobacter denitrificans NBRC 15125 (Achromobacter denitrificans NBRC 15125); experiment: SEC; Superdex 200 10/300 GL, 50 mM sodium phosphate, 150 mM NaCl, pH 7.2, 0.5 mL min^-1; native molecular weight against standard proteins, compared with SDS-PAGE
[3] = biological target: D-2-hydroxyglutarate dehydrogenase regulator (DhdR) of Achromobacter denitrificans NBRC 15125 (Achromobacter denitrificans NBRC 15125); experiment: as above
[4] = biological target: T3, DhdR (GntR family regulator) (Achromobacter denitrificans NBRC 15125, UniProt A0A6N0JVZ6 1-238); experiment: ITC; Supplementary Table 4 prints 3.03; EMSA/footprint: 10 mM Tris-HCl pH 7.4, 50 mM KCl, 0.5 mM EDTA, 10% glycerol, 1 mM DTT, 30 C; ITC: 25 C, same buffer as FTS assays (composition not in material); conditions: protein: recombinant; tags: His6 (pETDuet-1); chain copies: 2; blunt
T3 sequence: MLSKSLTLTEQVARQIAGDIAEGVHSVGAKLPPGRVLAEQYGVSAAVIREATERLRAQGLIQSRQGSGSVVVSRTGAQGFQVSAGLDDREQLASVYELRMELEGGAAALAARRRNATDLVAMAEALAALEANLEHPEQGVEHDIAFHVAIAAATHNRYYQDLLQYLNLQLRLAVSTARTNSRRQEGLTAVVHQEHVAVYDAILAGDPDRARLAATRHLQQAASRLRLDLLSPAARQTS

[5] = biological target: T3, DhdR (GntR family regulator); experiment: ITC; EMSA/footprint: 10 mM Tris-HCl pH 7.4, 50 mM KCl, 0.5 mM EDTA, 10% glycerol, 1 mM DTT, 30 C; ITC: 25 C, same buffer as FTS assays (composition not in material); conditions: protein: recombinant; tags: His6 (pETDuet-1); chain copies: 2; blunt

stoichiometry N [1]: 4
Molecule: 3-phosphoglycerate dehydrogenase (SerA) of Achromobacter denitrificans NBRC 15125 (enzyme)

Molecule: O=C(O)CCC(=O)C(=O)O [2-KG]
HPLC product analysis, biosensor assay and bound-NADH oxidation with purified en (WbpB): confirmed that WbpB also catalyzes the reduction of 2-KG to produce D-2-HG

Kd (DhdR): 1160 ± 160 nM
Molecule: O=C(O)CC[C@@H](O)C(=O)O [D-2-HG]
product of 2-KG reduction by purified enzyme (SerA): It was also able to reduce 2-KG to D-2-HG

stoichiometry N [2]: 2
Molecule: D-2-HG dehydrogenase (D2HGDH) of Achromobacter denitrificans NBRC 15125 (enzyme)

stoichiometry N [3]: 2
Molecule: D-2-hydroxyglutarate dehydrogenase regulator (DhdR) of Achromobacter denitrificans NBRC 15125 (natural protein)

B1: D1 (dhdO 1#) (dsDNA)
DNA 1: AAATTTATCAGATAACCTGAAAAGTAG
DNA 2: CTACTTTTCAGGTTATCTGATAAATTT
Kd [4]: 3290 ± 720 nM

B2: D4 (dhdO 4#) (dsDNA)
DNA 1: AAAGTTCTCAGATAACCTGAAAAGTAG
DNA 2: CTACTTTTCAGGTTATCTGAGAACTTT
Kd [5]: 580 ± 90 nM

B3: D9 (dhdO 9#) (dsDNA)
DNA 1: AAATTTCTCAGATAACCTGAAAAGTAG
DNA 2: CTACTTTTCAGGTTATCTGAGAAATTT
Kd [5]: 3230 ± 1270 nM

B4: D13 (dhdO 13#) (dsDNA)
DNA 1: AAAGGTCTCAGATAACCTGAAAAGTAG
DNA 2: CTACTTTTCAGGTTATCTGAGACCTTT
Kd [5]: 2460 ± 510 nM

B5: D6 (dhdO 6#) (dsDNA)
DNA 1: AAAGTTATAAGATAACCTGAAAAGTAG
DNA 2: CTACTTTTCAGGTTATCTTATAACTTT
Kd [5]: 730 ± 180 nM

B6: D0 (dhdO 0#) (dsDNA)
DNA 1: AAAGTTATCAGATAACCTGAAAAGTAG
DNA 2: CTACTTTTCAGGTTATCTGATAACTTT
Kd [5]: 640 ± 100 nM

B7: D2 (dhdO 2#) (dsDNA)
DNA 1: AAAGGTATCAGATAACCTGAAAAGTAG
DNA 2: CTACTTTTCAGGTTATCTGATACCTTT
Kd [5]: 2670 ± 530 nM

B8: D5 (dhdO 5#) (dsDNA)
DNA 1: AAAGTTAGCAGATAACCTGAAAAGTAG
DNA 2: CTACTTTTCAGGTTATCTGCTAACTTT
Kd [5]: 1140 ± 370 nM

B9: D3 (dhdO 3#) (dsDNA)
DNA 1: AAAGTGATCAGATAACCTGAAAAGTAG
DNA 2: CTACTTTTCAGGTTATCTGATCACTTT
Kd [5]: 1190 ± 250 nM

B10: D7 (dhdO 7#) (dsDNA)
DNA 1: AAATGTATCAGATAACCTGAAAAGTAG
DNA 2: CTACTTTTCAGGTTATCTGATACATTT
Kd [5]: 5810 ± 2150 nM

B11: D11 (dhdO 11#) (dsDNA)
DNA 1: AAATTTATAAGATAACCTGAAAAGTAG
DNA 2: CTACTTTTCAGGTTATCTTATAAATTT
Kd [5]: 3230 ± 1410 nM

B12: D10 (dhdO 10#) (dsDNA)
DNA 1: AAATTTAGCAGATAACCTGAAAAGTAG
DNA 2: CTACTTTTCAGGTTATCTGCTAAATTT
binding result [5]: no binding

B13: D8 (dhdO 8#) (dsDNA)
DNA 1: AAATTGATCAGATAACCTGAAAAGTAG
DNA 2: CTACTTTTCAGGTTATCTGATCAATTT
Kd [5]: 4020 ± 920 nM

B14: D12 (dhdO 12#) (dsDNA)
DNA 1: AAAGGGATCAGATAACCTGAAAAGTAG
DNA 2: CTACTTTTCAGGTTATCTGATCCCTTT
Kd [5]: 6250 ± 1820 nM
